One assay has as its target HLA-A*68:01. In words: IEDB peptide-MHC binding, purified MHC/competitive/radioactivity; filed as Kd, often an IC50 or EC50 that approximates it; ≥ and ≤ were set here for values at or beyond the usual limits of such assays.
In another assay the target is HLA-A*31:01. The assay is described as above.
The target of the next assay is HLA-B*08:01. Described as above. The settings on record: source organism: Hepacivirus hominis.
In a further assay the target is HLA-A*11:01. The assay is described as above.
The next assay has as its target HLA-A*68:02. The assay is described as above.
Another assay concerns the target HLA-B*54:01. The description is as above.
A further assay deals with HLA-A*02:06. The description is as above.
In a further assay the target is HLA-B*53:01. Described as above.
The target in another assay is HLA-A*02:03. The assay is described as above.
Another assay addresses HLA-A*02:01. Described as above.
Another assay concerns the target HLA-B*51:01. Described as above.
The target of another assay is HLA-B*35:01. The assay is described as above.
The target of the next assay is HLA-A*03:01. The description is as above.
The target of another assay is HLA-A*33:01. Described as above.
For the next assay, the target named is HLA-A*01:01. The assay is described as above. The settings on record: source organism: Hepacivirus hominis.
A further assay deals with HLA-B*07:02. The description is as above.
The target in the next assay is HLA-A*02:02. Described as above.
Another assay concerns the target HLA-A*24:02. In words: IEDB peptide-MHC binding, purified MHC/competitive/fluorescence; ≥ and ≤ were set here for values at or beyond the usual limits of such assays. To be noted: source organism: Zaire ebolavirus.
For a further assay, the target named is HLA-B*58:01. Kind of assay: IEDB peptide-MHC binding, purified MHC/competitive/radioactivity; filed as Kd, often an IC50 or EC50 that approximates it; ≥ and ≤ were set here for values at or beyond the usual limits of such assays.
The next assay deals with HLA-B*57:01. Described as above. The settings on record: source organism: Dengue virus 4 Philippines/H241/1956.
Where [1] appears, read: source organism: Hepacivirus hominis.
Setting [2] is: source organism: Vaccinia virus WR.
[3] abbreviates: source organism: SARS coronavirus Tor2.
The mark [4] stands for this setting: source organism: Dengue virus 2 Jamaica/1409/1983.
The mark [5] stands for this setting: source organism: Triticum aestivum.
Setting [6] is: source organism: Dengue virus 4 Philippines/H241/1956.

Take RNWAHSSL: the Kd (in general, the constant that tells how readily two partners part at equilibrium) in the assay with HLA-A*68:01 (setting [1]) is no less than 87.9 µM; in the assay with HLA-A*31:01 (setting [1]), 17.8 µM; in the assay with HLA-B*08:01, no less than 67.5 µM; with HLA-A*11:01 (setting [1]), no less than 87 µM; with HLA-A*68:02 (setting [1]), no less than 69.8 µM; in the assay with HLA-B*54:01 (setting [1]) it was no less than 87.7 µM. The Kd in the assay with HLA-A*02:06 (setting [1]) is no less than 58.3 µM; with HLA-B*53:01 (setting [1]), no less than 49.5 µM; with HLA-A*02:03 (setting [1]), no less than 87.7 µM; with HLA-A*02:01 (setting [1]), no less than 69.4 µM; in the assay with HLA-B*51:01 (setting [1]), no less than 51.2 µM; in the assay with HLA-B*35:01 (setting [1]) it was no less than 87.8 µM. Besides, the Kd with HLA-A*03:01 (setting [1]) was no less than 87.3 µM; in the assay with HLA-A*33:01 (setting [1]), no less than 87.6 µM; in the assay with HLA-A*01:01, 2.2 µM; with HLA-B*07:02 (setting [1]), no less than 57.4 µM; in the assay with HLA-A*02:02 (setting [1]) it was no less than 70 µM.
For the sequence RLLIWAYLSK, the Kd in the assay with HLA-A*68:01 (setting [2]) was 1.47 µM; with HLA-A*31:01 (setting [2]), 0.447 µM; in the assay with HLA-A*11:01 (setting [2]) it was 0.000114 µM; with HLA-A*68:02 (setting [2]), no less than 40.6 µM; with HLA-B*54:01 (setting [2]) it was 11.3 µM; with HLA-A*02:06 (setting [2]) it was 14.8 µM. The Kd was 10.4 µM with HLA-B*53:01 (setting [2]); 17.3 µM with HLA-A*02:03 (setting [2]); 4.99 µM with HLA-A*02:01 (setting [2]); no less than 34 µM with HLA-B*51:01 (setting [2]); no less than 69.9 µM in the assay with HLA-B*35:01 (setting [2]); 0.000159 µM with HLA-A*03:01 (setting [2]). For the same sequence, the Kd with HLA-A*33:01 (setting [2]) is 4.87 µM; with HLA-B*07:02 (setting [2]) it was no less than 69.6 µM; with HLA-A*02:02 (setting [2]) it was no less than 42.3 µM.
Consider QIFEVYWYL, for which the dissociation constant Kd in the assay with HLA-A*68:01 (setting [2]) was 0.873 µM; with HLA-A*31:01 (setting [2]), 0.143 µM; with HLA-A*11:01 (setting [2]), 0.0673 µM; in the assay with HLA-A*68:02 (setting [2]), 0.00889 µM; with HLA-B*54:01 (setting [2]), no less than 5 µM; with HLA-A*02:06 (setting [2]), 0.0192 µM. The dissociation constant Kd is 1.4 µM with HLA-B*53:01 (setting [2]); 0.186 µM with HLA-A*02:03 (setting [2]); 5.54 µM with HLA-B*51:01 (setting [2]); 6.5 µM with HLA-B*35:01 (setting [2]); 1.06 µM with HLA-A*03:01 (setting [2]); 0.775 µM in the assay with HLA-A*33:01 (setting [2]). The equilibrium dissociation constant (Kd) with HLA-B*07:02 (setting [2]) was determined as 16.1 µM; with HLA-A*02:02 (setting [2]) it was 0.00112 µM.
Turning to IPKGIMMNV, the Kd with HLA-B*54:01 (setting [3]) is 0.0147 µM; with HLA-B*53:01 (setting [3]), no less than 23.8 µM; with HLA-B*51:01 (setting [3]), 8.27 µM; in the assay with HLA-B*35:01 (setting [3]) it was no less than 20.9 µM; with HLA-B*07:02 (setting [3]), 0.128 µM.
With ANAGQFLSF, in the assay with HLA-A*24:02, the 50% inhibitory concentration (IC50) (in general, the midpoint of a concentration-inhibition curve) is 0.578 µM.
On to FITDNVHTW, for which the Kd was 0.0887 µM in the assay with HLA-B*53:01 (setting [4]) and 0.0175 µM with HLA-B*58:01 (setting [4]).
As for YPQPQPQY, the Kd with HLA-B*54:01 (setting [5]) is no less than 70 µM; in the assay with HLA-B*53:01 (setting [5]), 5.39 µM; in the assay with HLA-B*51:01 (setting [5]), 19.5 µM; with HLA-B*35:01 (setting [5]), 0.472 µM; in the assay with HLA-B*07:02 (setting [5]), no less than 87.3 µM.
In the case of LPYPDPSRIL, the dissociation constant (Kd) is 9.53 µM in the assay with HLA-B*54:01 (setting [3]); 8.29 µM with HLA-B*53:01 (setting [3]); 1 µM in the assay with HLA-B*51:01 (setting [3]); no less than 27 µM with HLA-B*35:01 (setting [3]); 3.79 µM in the assay with HLA-B*07:02 (setting [3]).
The matching figures for APVSAMVRM: no less than 23.2 µM, 0.749 µM, 1.77 µM, 0.433 µM and 0.158 µM.
The matching figures for KPTESACSSL: no less than 50.4 µM, 8.38 µM, 4.23 µM, 16.6 µM and 0.0584 µM.
Turning to MTTTANWLW, the values for the dissociation constant Kd with HLA-B*53:01 (setting [6]), with HLA-B*57:01 and with HLA-B*58:01 (setting [6]) were 0.0025 µM, 0.00162 µM and 0.00105 µM, respectively.
For GSSPIIEVKQ, in the assay with HLA-B*57:01, the equilibrium dissociation constant (Kd) was determined as 17 µM.

Source of the values: the Immune Epitope Database (IEDB).
